From the DeepSol protein solubility set

experiment: soluble on expression in E. coli; label from the status in PepcDB or PDB records

Sequence	soluble on expression in E. coli
GPGSMPALKPLLVFGLRGTLVERIHVRHVPEGMPAADFTVGLVKVWLRPHMVEVLNELQEHCRLAIWSSTTARNTHPLVNAVFGSNMTLQAGAGATTAAPARQEAASASAVVAASASNGRSGRFGTKRRPTKAEAADEESASEAAINAPKPQRVHFEFVWTREHTRVDDFRRLNAAVNDDSHATVKDLSQVFAQFPSIAQPQNTVLIDDTPSKAKMQADNYLWLDTCSNLRIKDETSLYRLRDFVMRELVPAEDVRELLPRRIRM	soluble
GPGSMPGGGLEVIGTPALPHPSSASDADDAAAGCSFRLSQSGGDPRYVSSRVAGRMQDARHGAESRLVDGTATFLDFLAETSVERPLRVRLRQRARQSFVFFNLETAIDCLNLSWEAYAVQESRGDDFISTGIQVNAAEVPRAALGFVERVAMALLGLCFNPSPHVCHALDDSEEDAAAAISFTSGGDRTPLLDERRASRSRSPVRAPLGAEVASSATRATQADLAAAALFPHCGSSSTRSGSCQPFFRQPAPAASATSPCFGGTSSPPGAAAAGASSFSSSPSNRIGSFPTSASAATANAGADAARLPHMNPEQYGYHRVAVLEARGVQVVVVRMDTSGSCPVHIGKVPRLVIAFRGTDNVANVMEDIRFRQRTWKEMKTPTLSGRASVHSGFLELWMSLKERVIDVVLRELRSQCTPLEGSNAEVSAAGTTGHAGEGASTVAGCSPSQAGHDMFHATVPFSDIWSLRRNGGGRGCADTRQGAFGSEQGGFEGFMRVYVTGHSLGGALASLCAYTLRRMLLLIQYPEPDLVVYTFGQPRIGNFVFKQYYNRAVPCTFRVVNESDAVSGFNFFGGHHVGVQVNIDRHGNYICKPMYIERMFRPTRGRGFALANHAISAYASSLNAMANVYTHGACPLRCRQPYMGEIVSVSSTNSE	not soluble
GPGSMQQPGSHQIQPIDSLTPFLGGKWWIRARVTDKTDIRTWNKPTSQGKLFSFTLIDESAAIRATVFNDAVDTFEPLIVNGQVYYFSGGQVKNANRRFSNVNNDYELTFDRSSEIMLARQDTSTAALPMQRYNFVPIELLKQREVGSLVDVLGVVLKVDEVSSITQKSTGRELMKRNVKMGDMTAAVEVTFWNDEAKAWCYPVGTVVALRQLKVGSFDGVTLSSTYQTKIDINPTDLPDVKKLATWYVATGGANVTSLSSQGLGAASGAGGESDRGRKYLDEIQSEGIGRGLKPEYVDVRCVPIYFKQDAQWYDACPTCNKKVTEEGAQGDRFRCEKCDKTVTPTQRYLVSIQVTDNVSQAWLTLFNEAGIEFFGMEAAELKRRAQEDPLYIAKLAQGRMNRPVVMRLRVKEEMSSNSMTGEESDRLRMSVVRISEFMPIAGTSEETRRRLAQNLRTECDEILRLIEAYV	not soluble
GPGSMQTDFGDATTFSLRPDHKRKFRPNDIRPVVRSLLESRLENEVYKADEMQSISKEIADGVRDRIRSMELERYKIMVHCMIGEQRGQGLRAGCKMFWDSDTDDYFEEVYVTQHLFAVVTVFGLYQY	not soluble
GPGSMRSTAELSSPLSISLPCSLSAEPPHHTLPATTANIIALRRAADPSTFTHTHTNTARPPLPAPYFRQRDSSWCSHASPHAHRHTHTYPSLSLPAPRFFFAHRYAAAALPRRLPAIMTHEFHSLFLPLAAEEQAVFADFFPTLVASSTSIQDGVAGEHSLQPTVSATLDTYSSACATSPHSPGECGSLPEVGRGAATDAQARCDAPLRSLVFAIGSARADAVIVVLRRGDVVLYGLDRLHTPPYEKCRIRPLPTTQQLMAARENARRYSNADGAASAGSWTDASCSGGVAGSRSVVNGGVEATCAALLPLHIGYCCRIPLSASFSSATPPAGGPRRGGGGGSRDERDEDVVYLRGIVGSSDGRVSLFSDTSYTLSFAAHDIPVAQVDAVLLPPCTLDRRVSTNASPTTSTRGFSSTGAGANTRTAPSGELTSPTSPQPQERLARATQRLGLVTSGNDGVVLLWRRLGDSMSPIVVVRPSTFSSRAAYAVYHPSALSALLSSWAPPSQREAAVDAELSCPPSCLLHAATSTSHTLRVRQLASISPKPTHKSLSSAARRESVEEAAPTSMSAALPGSWSATVTAIAAHDSVTLVAMGASLLSLVKLNPRSAARVWKAAESITQLVLIDSVALAVCARSGTVHVLTIHPGTGRVVRQRVYYSYKNRAIHHTSLHVASLLMTIVDVCGSTELVQLPTDVMLPCDVRLRRGEYTSGDAANVNLLASMAALRAKVCIEAIKGGSGGGVSGSVAANEAEVTGGSTSMYEANAALDQLNERLLLARYAVPEECDNFMGANVHVF	not soluble
GPGSMSDVKSKEAGANPAASKSGSGEDVAETKLAVPRSLDTGSKKHPLNSSWTLWYDSLSTYDSERWELSLVEVITVRTVEEFFTMLHYCKPPHVLRVSAQYHFFREGVKPMWEDPSNKAGGKLWISLDDKPVGDVGGRKWENANTGGAAGGEKDNASAATNNSNSNQNAKAKKEEQETEKKPELDTMWENLLMAMVGEYLDPEPDGDHIMGLVLSRRKYHNRIALWLRDASASEAVARIEKKLVKEAGLPPAMKFIFTPHSTGK	soluble
GPGSMSGTLLKEELLQLDNKRRSIMRDIEEAMTFLNSTPVGLRGSLVDSEGFPRDDCDLYAVRRARHTVNCGHNDLKSIEATIHEKLSQLHEECRGEAEEQMQRDKMKKKSEDDQRRRDEQKQVMSSKEPFVRVVDVATGSPAEEGGLICGHLIVQYGDVDAEKVLEGGFGEMARVTSSYEGQMLRVWVRSPSDDDCGGARELFIVPQRWRGEGLLGCTFEPMKLN	soluble
GPGSMSINFSAPYLVTEMEEKVVTSLPSGDTASGSGESTASPPIVISAAVPYTEEEKKLLTEQLRRHQRQQSQGDDDSSWNETTLPFISSMVEKVLQLAAQNRESDSTKDSGSGDENKPQEKANATDDVAGADAVSKVDTFVEDNDYVLEQLRLQPWPFFTLPRLCEILADPYKYNSIGDKLRGEKLQSAIRRCVLVSAPLNCDVRNNSS	not soluble
GPGSMSLPCPSSSSPLLGSITSGVRSPSRGPVQQQQLLHQRHASMRLRLHKDGSICACPEKSGGGVSQACAPPLPATSAFARGKEEPSAKRHHAEPSSCPGPGGDSSSVDRSAAATVVTIAAPLLSIPNPSSRAAPSPFRFLCTSVGGCPVVGAKDARVHLPDSSARCDVSGSVAPRDLSTTSAHSKAHSTAAVGRASPSSGVVSPPLSATYPSLVSASHGARVVCSHPQSASASTVPGATIDTSAPSPVPSPPHRIHQHELRPADFRREEVLGEGSYSIVTLATHRASGLSFALKEIDRSRLRWRPLEAQLRWEINLQRTLRHPHIVRLYSYFITPDCISLVLEYCSGGTLLSRLRAAPQYRLSERQASRYTRHVAKALVHLHGLGVAHRDLKLENVLIDADGIAKLADFGWSRSVVHPLPSSKSAAAAQTAGDRNDAPCSSAEHNTSNEDPTEGVAEGRRTVCGTLDYLSPEMVSGQAHSAKTDVWSLGVMLAEMLTGTPPFYTESTQETLYAIQRLPPNLTGLHPKGHGPGLTGSGASTSASVCLILDEPVALSAGALSLIHAMLQKDPSARPTMPEVLGHPWLQKKKLARKS	not soluble
GPGSMSNNMLALPKVLLMGLRKSGKSSIQKVVFEGMQPHDSATLATTVQPEKSTVHSNDFVNFEVWDFPGQNDPFDSSNASRYDVNQLLENCGAIVYVLDCRELIDDARARLLDTISAAYRHNPELCVEVFIHKVDALSEDHQADLLASLQRRVEEEAKPLLENVQPLRLNFNLTSIYDHSVFQAFSLVVQKLIKSKTPYITELLQMLNSNSNIDLSYLFLSHSKIYVAVDERNRLKSRTYDLCSDAIEVVVKMSGIYMRQRDGVAGGVKDAFTDSVHSLAASATSRTIISSSLGSADGCASDVSELYRGANAVIQLSNEDCIYVRELPSSLTLVLMMKQTHLENRALIDRNVDIFYKAAFDIFSTSAS	not soluble
GPGSMSTSKEAADQSRKFGFKESREQYQQRKRQEKQLKWTERLSKEDLGKLRIELDSLKRARFLAPQQNERKCLVHRMIRDLEAAENKEPKEETPVVATMPSALDSDSDDDIFSGKGTLTNDEHKRLFIPRSVRKKPEEKKCEKTAQQLAGEAERELLAAVHDDDDLDSFLDSLR	soluble
